Target: fused protein of GAL4 DNA binding domain and mouse ATF4 leucine zipper domain (amino acids 298 to 349 in the … (mouse, UniProt P04386))
Experiment: yeast two-hybrid, colony formation on histidine-, tryptophan-, leucine- medium
Experimental: The site to which ZIP-kinase and ATF4 bind was determined using yeast two-hybrid system. First, variants of mouse ZIP-kinase were prepared: 1) amino acids 278 to 448 of ZIP-kinase (ZIP-kinase 278–448); 2) leucine zipper domain of ZIP-kinase (amino acids 398 to 448) (ZIP-kinase LZ); and 3) a variant of ZIP-kinase in which valine and leucine in the leucine zipper domain were substituted with alanine (ZIP-kinase LA). Each of these variants was designed to produce a chimeric protein with GAL4 trans activating domain, and DNA coding for said chimeric protein was inserted into pACT2 and introduced into yeast strain Y190 together with pAS2-1-ATF4 LZ. The strain was cultivated on histidine+, tryptophan–, leucine–, and histidine–, tryptophan–, leucine– selective media.

B1: ZIP-kinase LA (variant of mouse ZIP-kinase in which valine and leucine in the leucine zipper domain were substituted with alanine) as chimeric protein with … (enzyme)
chain: MSTFRQEDVEDHYEMGEELGSGQFAIVRKCQQKGTGMEYAAKFIKKRRLPSSRRGVSREEIEREVSILREIRHPNIITLHDVFENKTDVVLILELVSGGELFDFLAEKESLTEDEATQFLKQILDGVHYLHSKRIAHFDLKPENIMLLDKHAASPRIKLIDFGIAHRIEAGSEFKNIFGTPEFVAPEIVNYEPLGLEADMWSIGVITYILLSGASPFLGETKQETLTNISAVNYDFDEEYFSSTSELAKDFIRRLLVKDPKRRMTIAQSLEHSWIKVRRREDGARKPERRRLRAARLREYSLKSHSSMPRNTSYASFERFSRVLEDVAAAEQGLRELQRGRRQCRERVCALRAAAEQREARCRDGSAGLGRDLRRLRTELGRTEALRTRAQEEARAALLGAGGLKRRLCRLENRYDALAAQAAAEVQFARDLVRAAEQERLQAECGVR
binding result: no binding
